B1: Pistol ribozyme (parent)
chain: GGGUCGUUGUUCCAUAAUCGCGUGGAUAUGGCACGCAAGUUUCUACCGGGCACCGUAAAUGUCCGACUGGAGCCGUUCGGGCGGCUAUAAACAGACCUCAGGCCCGAAGCGUGGCGGCACCUGCCGCCGGUGGUAAAAAAGAUCGGAAGAGCACACGUCU

Variants of: B1
Experiment: aptazyme ON/OFF ratio, guanine; higher = stronger switching; co-transcriptional cleavage with and without guanine

In order of falling “aptazyme ON/OFF ratio” value:
1. U7C U8G G9A U10C  3.63
2. U7C U8G G9A U10G  2.11
3. U7C U8G G9C C12A  1.58
4. U7C U8G G9A U10G C13U  1.54
5. U7C U8G G9A U10G U11A C12U C13A  1.46
6. U7C U8G G9A U10G C12U C13A  1.46
7. U7C U8G G9C U10C C12G C13A  1.43
8. U7C U8G G9A U10G U11G C12U C13A  1.42
9. U7C U8G G9A U10G U11A C12G C13U  1.42
10. U7C U8G G9A U10G U11G  1.42
11. U7C U8G G9A U10G U11C C12G C13G  1.41
12. U7C U8G G9A U10G U11C C12A  1.41
13. U7C U8G G9A U10C U11G C13U  1.41
14. U7C U8G G9A U10G U11G C13G  1.39
15. U7C U8G G9A U10G U11G C12U  1.36
16. U7C U8G G9A U10G U11A C12U C13G  1.36
17. U7C U8G G9A U10G U11C C12A C13A  1.35
18. U7C U8G G9A U10A U11G  1.33
19. U7C U8G G9A U10G U11G C12A  1.33
20. U7C U8G G9A U10G U11A C12U C13U  1.32
21. U7C U8G G9C U10A U11G C12U  1.31
22. U7C U8G G9C C12A C13U  1.31
23. U7C U8G G9C U10A U11A  1.3
24. U7C U8G G9A U11A C12A C13A  1.3
25. U7C U8G G9C U10A U11C C12G C13U  1.3
26. U7C U8G G9A U11G C12U C13G  1.29
27. U7C U8G G9A U10C U11G C12U  1.29
28. U7C U8G G9A U10G U11C C12G  1.29
29. U7C U8G G9A U10C U11G C12U C13U  1.28
30. U7C U8G G9A U10C U11G C13A  1.28
31. U7C U8G G9C C12G  1.28
32. U7C U8G G9A U11G C12U C13U  1.27
33. U7C U8G G9A U11G C12U C13A  1.27
34. U7C U8G G9A U10G U11G C12G  1.27
35. U7C U8G G9A U10C U11G C12U C13A  1.26
36. U7C U8G G9A U10G U11A C12G C13A  1.26
37. U7C U8G G9C U10A U11G C12G  1.26
38. U7C U8G G9A U10G C12U C13U  1.26
39. U7C U8G G9A U10G U11G C12U C13G  1.25
40. U7C U8G G9A U10G U11C C12A C13U  1.25
41. U7C U8G G9A U10G U11A C12G C13G  1.24
42. U7C U8G G9A U11A C12A C13U  1.24
43. U7C U8G G9C U10A U11A C12U C13U  1.24
44. U7C U8G G9C U10A U11C C12G C13G  1.24
45. U7C U8G G9C U10A U11C C12G C13A  1.24
46. U7C U8G G9A U10G U11G C12A C13G  1.24
47. U7C U8G G9A U10G C13A  1.23
48. U7C U8G G9A U10C U11G C12G  1.22
49. U7C U8G G9A U10G U11G C12U C13U  1.22
50. U7C U8G G9C U10A C12A C13A  1.22
51. U7C U8G G9C U10C U11A C12U C13G  1.21
52. U7C U8G G9C C12A C13A  1.21
53. U7C U8G G9C U10A U11A C12U C13A  1.21
54. U7C U8G G9A U10G U11C C12G C13A  1.2
55. U7C U8G G9C U10A U11A C13U  1.2
56. U7C U8G G9A U11A C13A  1.2
57. U7C U8G G9C U10A C12G C13A  1.2
58. U7C U8G G9C U10A C12G C13G  1.2
59. U7C U8G G9A U10G U11G C13A  1.2
60. U7C U8G G9A U10G U11C C12G C13U  1.19
61. U7C U8G G9C U10A U11C C12A C13A  1.19
62. U7C U8G G9C U10A U11G C13A  1.19
63. U7C U8G G9A U11A C13U  1.19
64. U7C U8G G9A U10A U11G C12A C13G  1.19
65. U7C U8G G9C U10A C12G C13U  1.19
66. U7C U8G G9A U10G U11G C13U  1.19
67. U7C U8G G9A U10G C12U C13G  1.19
68. U7C U8G G9C U10C U11C C12G C13A  1.19
69. U7C U8G G9A U11A C12U C13A  1.19
70. U7C U8G G9C U10A U11G  1.18
71. U7C U8G G9C U10A U11G C13U  1.18
72. U7C U8G G9C U10A C12A C13U  1.18
73. U7C U8G G9C U10C U11G C12U  1.17
74. U7C U8G G9C U10A U11C C12A C13U  1.17
75. U7C U8G G9C U10A U11A C12U C13G  1.17
76. U7C U8G G9C U10C U11A C12G C13G  1.17
77. U7C U8G G9A U11A C12U C13G  1.17
78. U7C U8G G9A U10G C13G  1.16
79. U7C U8G G9C U10C U11G  1.16
80. U7C U8G G9A U10A U11G C12A C13U  1.16
81. U7C U8G G9C U10A U11A C13A  1.15
82. U7C U8G G9A U11C C12U C13G  1.15
83. U7C U8G G9A U11A C12A C13G  1.15
84. U7C U8G G9A U11A C12U C13U  1.15
85. U7C U8G G9A U10C U11G C12A C13U  1.14
86. U7C U8G G9A U10C U11G C12U C13G  1.14
87. U7C U8G G9A U10G U11C C12U  1.14
88. U7C U8G G9A U11C C12A C13U  1.14
89. U7C U8G G9A U10C C12A C13U  1.14
90. U7C U8G G9A U10C U11A C12G  1.13
91. U7C U8G G9A U10C U11G C12A C13G  1.13
92. U7C U8G G9A U10A U11G C12A C13A  1.13
93. U7C U8G G9A U10C C12A C13A  1.13
94. U7C U8G G9A U10C U11G C12A C13A  1.12
95. U7C U8G G9A U10C U11G C13G  1.12
96. U7C U8G G9C U10C U11A C12G C13U  1.12
97. U7C U8G G9A U11C C12A C13G  1.12
98. U7C U8G G9C U10C U11G C12A C13A  1.12
99. U7C U8G G9C U10A U11C C12U C13G  1.12
100. U7C U8G G9C U10C U11G C12G C13A  1.12
101. U7C U8G G9A U10G U11G C12A C13U  1.12
102. U7C U8G G9A U10C U11A C12A C13A  1.11
103. U7C U8G G9C U10A U11C C12A C13G  1.11
104. U7C U8G G9C U10A U11C C12U C13A  1.11
105. U7C U8G G9A U10G U11C C13A  1.11
106. U7C U8G G9C C12U  1.11
107. U7C U8G G9A U10G U11G C12A C13A  1.11
108. U7C U8G G9A U10G U11A C13G  1.1
109. U7C U8G G9A U10C C12U C13U  1.1
110. U7C U8G G9C U10C C12G C13U  1.1
111. U7C U8G G9C U10C U11A C12G C13A  1.1
112. U7C U8G G9A U11C C12A C13A  1.1
113. U7C U8G G9A U10G U11C C12A C13G  1.1
114. U7C U8G G9C U10A C12A C13G  1.1
115. U7C U8G G9A U10C U11A C12U  1.09
116. U7C U8G G9C U10C C12U C13U  1.09
117. U7C U8G G9C U10C U11G C12G  1.09
118. U7C U8G G9A U10G U11A C13A  1.09
119. U7C U8G G9C U10C C12G C13G  1.09
120. U7C U8G G9A U11C C12U C13U  1.09
121. U7C U8G G9A U11C C12U C13A  1.09
122. U7C U8G G9C C12A C13G  1.09
123. U7C U8G G9C U10A U11C C12U C13U  1.09
124. U7C U8G G9C U10C U11G C12G C13G  1.09
125. U7C U8G G9A U10C C12A C13G  1.09
126. U7C U8G G9C U10A U11A C13G  1.08
127. U7C U8G G9C U10C C12U C13G  1.08
128. U7C U8G G9C U10C U11A C12U C13A  1.08
129. U7C U8G G9C U10C U11A C12U C13U  1.08
130. U7C U8G G9A U10C U11A C12A C13G  1.08
131. U7C U8G G9A U10C C12U C13A  1.08
132. U7C U8G G9C U10C U11C C12G C13G  1.08
133. U7C U8G G9A U10C U11G C12A  1.07
134. U7C U8G G9A U10C U11A C12U C13A  1.07
135. U7C U8G G9A U10C U11A C12A C13U  1.07
136. U7C U8G G9A U10C C12U C13G  1.07
137. U7C U8G G9C U10A U11C C13A  1.07
138. U7C U8G G9A U11A C13G  1.07
139. U7C U8G G9C U10C U11C C12G C13U  1.07
140. U7C U8G G9C C13A  1.06
141. U7C U8G G9A U10G U11C  1.06
142. U7C U8G G9C U10C U11G C12A C13G  1.06
143. U7C U8G G9C U10C C12U C13A  1.05
144. U7C U8G G9A U10C U11A C12U C13U  1.05
145. U7C U8G G9A U10C U11A C12U C13G  1.05
146. U7C U8G G9C U10A U11G C12A  1.05
147. U7C U8G G9A U10G U11A  1.05
148. U7C U8G G9C U10C U11G C12A C13U  1.05
149. U7C U8G G9C U10C U11G C12G C13U  1.05
150. U7C U8G G9A U10A U11C C13U  1.04
151. U7C U8G G9A U10G U11A C13U  1.04
152. U7C U8G G9C U10A U11C C13G  1.04
153. U7C U8G G9C U10C U11C  1.04
154. U7C U8G G9C C13G  1.04
155. U7C U8G G9C C13U  1.04
156. U7C U8G G9A U10G U11C C13G  1.04
157. U7C U8G G9C U10A U11C  1.03
158. U7C U8G G9A U10A U11C C13A  1.03
159. U7C U8G G9C U10C U11G C12A  1.03
160. U7C U8G G9C U10A U11G C13G  1.03
161. U7C U8G G9A U10G U11C C13U  1.03
162. U7C U8G G9C U10C U11C C13G  1.03
163. U7C U8G G9C U10C U11C C13A  1.03
164. U7C U8G G9A U10A U11C C13G  1.02
165. U7C U8G G9C U10C U11C C13U  1.02
166. U7C U8G G9C U10A U11C C13U  1.01
167. U7C U8G G9C U10C U11A  0.99
